T1: human FcγRIIb extracellular domain with C-terminal His tag (human, UniProt P31994 43-217)
T1 construct: extracellular domain; also called FcgRIIb; 2b; not shown: His tag attached to the C terminus
T1 sequence (looked up): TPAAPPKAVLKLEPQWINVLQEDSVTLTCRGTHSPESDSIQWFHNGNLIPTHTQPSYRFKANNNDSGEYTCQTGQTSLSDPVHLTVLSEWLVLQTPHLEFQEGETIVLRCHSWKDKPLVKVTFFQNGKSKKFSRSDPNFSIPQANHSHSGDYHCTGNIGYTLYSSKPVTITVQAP

T2: FcγRIIb (human, UniProt P31994 43-217)
T2 construct: extracellular domain; also called 2b; not shown: His tag at the C terminus
T2 sequence (looked up): T1 sequence (looked up)

T3: FcγRIIa H (human, UniProt P12318 34-217)
T3 construct: extracellular domain; also called FcγRIIa type H; 2aH; not shown: His tag at the C terminus
T3 sequence (looked up): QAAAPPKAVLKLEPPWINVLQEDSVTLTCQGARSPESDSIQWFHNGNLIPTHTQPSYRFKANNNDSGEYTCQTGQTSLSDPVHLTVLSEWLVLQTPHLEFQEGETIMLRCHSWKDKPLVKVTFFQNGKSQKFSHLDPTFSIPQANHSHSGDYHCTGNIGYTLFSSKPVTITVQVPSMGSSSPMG

B1: GpH7-B3 variant L328_03V/GpL16-k0 (Ho Ab) (antibody, human IgG1, kappa)
heavy: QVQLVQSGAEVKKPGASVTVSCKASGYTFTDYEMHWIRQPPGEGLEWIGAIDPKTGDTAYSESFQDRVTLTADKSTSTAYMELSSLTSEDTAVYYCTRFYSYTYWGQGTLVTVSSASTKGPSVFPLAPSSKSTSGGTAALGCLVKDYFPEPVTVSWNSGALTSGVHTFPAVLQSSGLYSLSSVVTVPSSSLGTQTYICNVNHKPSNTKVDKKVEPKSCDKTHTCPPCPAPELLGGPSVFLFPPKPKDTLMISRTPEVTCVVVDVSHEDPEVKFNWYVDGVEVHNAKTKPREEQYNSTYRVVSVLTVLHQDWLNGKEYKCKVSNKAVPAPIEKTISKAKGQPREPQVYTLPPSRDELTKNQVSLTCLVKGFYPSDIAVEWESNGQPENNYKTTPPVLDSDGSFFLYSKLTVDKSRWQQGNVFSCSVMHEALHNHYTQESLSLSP
light: DIVMTQSPLSLPVTPGEPASISCQASESLVHSNRNTYLHWYLQKPGQSPQLLIYKVSNRFSGVPDRFSGSGSGTDFTLKISRVEAEDVGVYYCSQNTHVPPTFGQGTKVEIERTVAAPSVFIFPPSDEQLKSGTASVVCLLNNFYPREAKVQWKVDNALQSGNSQESVTEQDSKDSTYSLSSTLTLSKADYEKHKVYACEVTHQGLSSPVTKSFNRGEC
notes: Anti-glypican-3 IgG1; mutation in both H chains; also called L328V homodimerized antibody
B2: GpH7-B3 variant K334_18N/GpL16-k0 (Ho Ab) (antibody, human IgG1, kappa)
heavy: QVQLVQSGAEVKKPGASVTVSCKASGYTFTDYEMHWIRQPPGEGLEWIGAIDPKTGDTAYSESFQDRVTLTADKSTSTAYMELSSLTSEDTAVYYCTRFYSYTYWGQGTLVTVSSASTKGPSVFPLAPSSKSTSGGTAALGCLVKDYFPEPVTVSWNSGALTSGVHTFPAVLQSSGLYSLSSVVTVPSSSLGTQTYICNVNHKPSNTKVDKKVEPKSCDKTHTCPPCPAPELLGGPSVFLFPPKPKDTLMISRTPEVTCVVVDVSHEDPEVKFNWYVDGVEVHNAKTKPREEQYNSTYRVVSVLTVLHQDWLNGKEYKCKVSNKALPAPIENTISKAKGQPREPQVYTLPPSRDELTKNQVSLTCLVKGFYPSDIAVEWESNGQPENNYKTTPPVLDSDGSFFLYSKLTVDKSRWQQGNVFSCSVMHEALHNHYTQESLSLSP
light: B1 light
notes: Anti-glypican-3 IgG1; mutation in both H chains; also called K334N homodimerized antibody
B3: GpH7-B3 variant K334_15Y/GpL16-k0 (Ho Ab) (antibody, human IgG1, kappa)
heavy: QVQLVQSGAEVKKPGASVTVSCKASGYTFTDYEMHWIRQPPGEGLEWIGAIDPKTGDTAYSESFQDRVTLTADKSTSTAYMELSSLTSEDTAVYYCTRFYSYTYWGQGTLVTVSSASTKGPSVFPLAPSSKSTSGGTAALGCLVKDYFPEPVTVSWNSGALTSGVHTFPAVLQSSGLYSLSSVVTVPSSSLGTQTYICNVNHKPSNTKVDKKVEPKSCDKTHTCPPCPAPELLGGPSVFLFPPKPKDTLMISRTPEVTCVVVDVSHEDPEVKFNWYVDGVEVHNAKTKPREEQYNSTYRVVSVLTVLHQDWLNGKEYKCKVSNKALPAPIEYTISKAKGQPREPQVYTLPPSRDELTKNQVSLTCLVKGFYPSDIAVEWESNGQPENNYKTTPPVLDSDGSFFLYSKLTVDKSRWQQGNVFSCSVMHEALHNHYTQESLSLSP
light: B1 light
notes: Anti-glypican-3 IgG1; mutation in both H chains; also called K334Y homodimerized antibody
B4: GpH7-B3 variant K334_16H/GpL16-k0 (Ho Ab) (antibody, human IgG1, kappa)
heavy: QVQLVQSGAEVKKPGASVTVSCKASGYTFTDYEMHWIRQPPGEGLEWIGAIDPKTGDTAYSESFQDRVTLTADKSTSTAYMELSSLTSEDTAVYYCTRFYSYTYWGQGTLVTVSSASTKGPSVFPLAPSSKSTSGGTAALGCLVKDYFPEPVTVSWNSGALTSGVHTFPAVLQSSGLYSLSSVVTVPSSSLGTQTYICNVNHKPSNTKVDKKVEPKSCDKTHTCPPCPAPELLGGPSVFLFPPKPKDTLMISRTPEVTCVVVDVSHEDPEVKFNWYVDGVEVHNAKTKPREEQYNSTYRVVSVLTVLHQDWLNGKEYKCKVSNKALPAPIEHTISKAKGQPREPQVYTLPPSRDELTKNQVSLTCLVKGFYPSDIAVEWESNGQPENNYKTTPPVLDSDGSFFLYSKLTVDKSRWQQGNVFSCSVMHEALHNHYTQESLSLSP
light: B1 light
notes: Anti-glypican-3 IgG1; mutation in both H chains; also called K334H homodimerized antibody
B5: GpH7-B3 variant K334_19Q/GpL16-k0 (Ho Ab) (antibody, human IgG1, kappa)
heavy: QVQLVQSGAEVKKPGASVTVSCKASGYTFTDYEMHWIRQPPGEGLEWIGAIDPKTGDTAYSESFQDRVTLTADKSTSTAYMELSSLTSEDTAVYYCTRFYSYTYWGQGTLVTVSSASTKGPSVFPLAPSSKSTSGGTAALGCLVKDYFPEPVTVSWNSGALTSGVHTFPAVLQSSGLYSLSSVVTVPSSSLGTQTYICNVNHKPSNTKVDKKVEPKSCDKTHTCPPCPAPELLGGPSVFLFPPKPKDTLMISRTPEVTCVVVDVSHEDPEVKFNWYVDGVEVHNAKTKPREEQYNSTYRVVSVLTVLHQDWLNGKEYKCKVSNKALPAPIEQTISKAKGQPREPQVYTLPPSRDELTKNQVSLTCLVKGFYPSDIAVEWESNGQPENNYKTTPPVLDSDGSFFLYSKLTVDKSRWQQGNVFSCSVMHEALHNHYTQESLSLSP
light: B1 light
notes: Anti-glypican-3 IgG1; mutation in both H chains; also called K334Q homodimerized antibody
B6: GpH7-B3 variant L328_04F/GpL16-k0 (Ho Ab) (antibody, human IgG1, kappa)
heavy: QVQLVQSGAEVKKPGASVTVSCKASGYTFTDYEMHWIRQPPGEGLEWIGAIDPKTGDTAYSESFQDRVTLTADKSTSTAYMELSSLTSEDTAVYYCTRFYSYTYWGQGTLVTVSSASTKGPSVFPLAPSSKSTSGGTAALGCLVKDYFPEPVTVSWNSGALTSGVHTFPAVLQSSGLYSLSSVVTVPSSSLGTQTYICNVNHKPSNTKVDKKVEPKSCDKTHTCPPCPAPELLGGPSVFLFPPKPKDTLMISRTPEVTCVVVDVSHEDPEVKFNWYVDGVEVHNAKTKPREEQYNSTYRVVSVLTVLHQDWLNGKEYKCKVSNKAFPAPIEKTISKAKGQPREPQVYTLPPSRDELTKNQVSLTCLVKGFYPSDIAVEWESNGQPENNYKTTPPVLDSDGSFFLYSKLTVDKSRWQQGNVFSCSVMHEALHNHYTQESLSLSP
light: B1 light
notes: Anti-glypican-3 IgG1; mutation in both H chains; also called L328F homodimerized antibody
B7: GpH7-A5/GpH7-B3 variant E333_14T/GpL16-k0 (antibody, human IgG1, kappa)
heavy 1: not shown
heavy 2: not shown
light: B1 light
notes: Heterodimerized IgG1; mutation in the GpH7-B3 chain only; also called He Ab
B8: GpH7-A5/GpH7-B3 variant Y296_09D/GpL16-k0 (antibody, human IgG1, kappa)
heavy 1: not shown
heavy 2: not shown
light: B1 light
notes: as for B7
B9: GpH7-A5/GpH7-B3 variant Y300_08L/GpL16-k0 (antibody, human IgG1, kappa)
heavy 1: not shown
heavy 2: not shown
light: B1 light
notes: as for B7
B10: GpH7-A5/GpH7-B3 variant T335_01G/GpL16-k0 (antibody, human IgG1, kappa)
heavy 1: not shown
heavy 2: not shown
light: B1 light
notes: as for B7
B11: GpH7-A5/GpH7-B3 variant I336_10E/GpL16-k0 (antibody, human IgG1, kappa)
heavy 1: not shown
heavy 2: not shown
light: B1 light
notes: as for B7
B12: GpH7-A5/GpH7-B3 variant K326_12R/GpL16-k0 (antibody, human IgG1, kappa)
heavy 1: not shown
heavy 2: not shown
light: B1 light
notes: as for B7
B13: GpH7-A5/GpH7-B3 variant Y296_04F/GpL16-k0 (antibody, human IgG1, kappa)
heavy 1: not shown
heavy 2: not shown
light: B1 light
notes: as for B7
B14: GpH7-A5/GpH7-B3 variant I332_18N/GpL16-k0 (antibody, human IgG1, kappa)
heavy 1: not shown
heavy 2: not shown
light: B1 light
notes: as for B7
B15: GpH7-A5/GpH7-B3 variant S324_10E/GpL16-k0 (antibody, human IgG1, kappa)
heavy 1: not shown
heavy 2: not shown
light: B1 light
notes: as for B7
B16: GpH7-A5/GpH7-B3 variant T335_06M/GpL16-k0 (antibody, human IgG1, kappa)
heavy 1: not shown
heavy 2: not shown
light: B1 light
notes: as for B7
B17: GpH7-A5/GpH7-B3 variant H268_04F/GpL16-k0 (antibody, human IgG1, kappa)
heavy 1: not shown
heavy 2: not shown
light: B1 light
notes: as for B7
B18: GpH7-A5/GpH7-B3 variant Q295_05P/GpL16-k0 (antibody, human IgG1, kappa)
heavy 1: not shown
heavy 2: not shown
light: B1 light
notes: as for B7
B19: GpH7-A5/GpH7-B3 variant S324_09D/GpL16-k0 (antibody, human IgG1, kappa)
heavy 1: not shown
heavy 2: not shown
light: B1 light
notes: as for B7
B20: GpH7-A5/GpH7-B3 variant S324_04F/GpL16-k0 (antibody, human IgG1, kappa)
heavy 1: not shown
heavy 2: not shown
light: B1 light
notes: as for B7
B21: GpH7-A5/GpH7-B3 variant I336_18N/GpL16-k0 (antibody, human IgG1, kappa)
heavy 1: not shown
heavy 2: not shown
light: B1 light
notes: as for B7
B22: GpH7-A5/GpH7-B3 variant Y300_07I/GpL16-k0 (antibody, human IgG1, kappa)
heavy 1: not shown
heavy 2: not shown
light: B1 light
notes: as for B7
B23: GpH7-A5/GpH7-B3 variant G236_20W/GpL16-k0 (antibody, human IgG1, kappa)
heavy 1: not shown
heavy 2: not shown
light: B1 light
notes: as for B7
B24: GpH7-A5/GpH7-B3 variant T335_05P/GpL16-k0 (antibody, human IgG1, kappa)
heavy 1: not shown
heavy 2: not shown
light: B1 light
notes: as for B7
B25: GpH7-A5/GpH7-B3 variant T335_02A/GpL16-k0 (antibody, human IgG1, kappa)
heavy 1: not shown
heavy 2: not shown
light: B1 light
notes: as for B7
B26: GpH7-A5/GpH7-B3 variant I332_19Q/GpL16-k0 (antibody, human IgG1, kappa)
heavy 1: not shown
heavy 2: not shown
light: B1 light
notes: as for B7
B27: GpH7-A5/GpH7-B3 variant Y296_16H/GpL16-k0 (antibody, human IgG1, kappa)
heavy 1: not shown
heavy 2: not shown
light: B1 light
notes: as for B7
B28: GpH7-A5/GpH7-B3 variant S324_20W/GpL16-k0 (antibody, human IgG1, kappa)
heavy 1: not shown
heavy 2: not shown
light: B1 light
notes: as for B7
B29: GpH7-A5/GpH7-B3 variant S324_02A/GpL16-k0 (antibody, human IgG1, kappa)
heavy 1: not shown
heavy 2: not shown
light: B1 light
notes: as for B7
B30: GpH7-A5/GpH7-B3 variant Y300_06M/GpL16-k0 (antibody, human IgG1, kappa)
heavy 1: not shown
heavy 2: not shown
light: B1 light
notes: as for B7
B31: GpH7-A5/GpH7-B3 variant I332_13S/GpL16-k0 (antibody, human IgG1, kappa)
heavy 1: not shown
heavy 2: not shown
light: B1 light
notes: as for B7
B32: GpH7-A5/GpH7-B3 variant I332_03V/GpL16-k0 (antibody, human IgG1, kappa)
heavy 1: not shown
heavy 2: not shown
light: B1 light
notes: as for B7
B33: GpH7-A5/GpH7-B3 variant I336_03V/GpL16-k0 (antibody, human IgG1, kappa)
heavy 1: not shown
heavy 2: not shown
light: B1 light
notes: as for B7
B34: GpH7-A5/GpH7-B3 variant S324_16H/GpL16-k0 (antibody, human IgG1, kappa)
heavy 1: not shown
heavy 2: not shown
light: B1 light
notes: as for B7
B35: GpH7-A5/GpH7-B3 variant Q295_07I/GpL16-k0 (antibody, human IgG1, kappa)
heavy 1: not shown
heavy 2: not shown
light: B1 light
notes: as for B7
B36: GpH7-A5/GpH7-B3 variant I332_16H/GpL16-k0 (antibody, human IgG1, kappa)
heavy 1: not shown
heavy 2: not shown
light: B1 light
notes: as for B7
B37: GpH7-A5/GpH7-B3 variant Y296_18N/GpL16-k0 (antibody, human IgG1, kappa)
heavy 1: not shown
heavy 2: not shown
light: B1 light
notes: as for B7
B38: GpH7-A5/GpH7-B3 variant S324_15Y/GpL16-k0 (antibody, human IgG1, kappa)
heavy 1: not shown
heavy 2: not shown
light: B1 light
notes: as for B7

Target: T1, human FcγRIIb extracellular domain with …
Test: SPR (Biacore T100), antibody captured on antigen peptide chip, FcγRIIb as analyte; relative binding
Description: (§1) Analysis of interaction between objective antibody and the FcγR was carried out using Biacore T100 (GE Healthcare). HBS-EP+ (GE Healthcare) was used as the running buffer, and the measurement temperature was set to 25° C. Chips produced by immobilizing the antigen peptide by the amine coupling method to a Series S Sencor Chip CM5 (GE Healthcare), or alternatively, chips produced by allowing preliminarily biotinylated antigen peptides to interact with and immobilize onto a Series S Sensor Chip SA (certified) (GE Healthcare) were used. Antibodies of interest were captured onto an antigen peptide-immobilized chip, and allowed to interact to each FcγR diluted with running buffer. To regenerate and repeatedly use the chip, the antibodies captured on the chip were washed off by reacting 10 mM glycine-HCl, pH 1.5.

| Ho/Con_2b | Binder |
| --- | --- |
| 135 % of control GpH7-B3/GpL16-k0 (=100) | B1 |
| 128 % of control GpH7-B3/GpL16-k0 (=100) | B2 |
| 126 % of control GpH7-B3/GpL16-k0 (=100) | B3 |
| 124 % of control GpH7-B3/GpL16-k0 (=100) | B4 |
| 117 % of control GpH7-B3/GpL16-k0 (=100) | B5 |
| 241 % of control GpH7-B3/GpL16-k0 (=100) | B6 |

Target: T2, FcγRIIb
Test: SPR (Biacore), antibody captured, FcγR as analyte; binding relative to GpH7-A5/GpH7-B3/GpL16-k0 = 100
Description: (§2) The heterodimerized antibodies He Abs in which one of the H chains was introduced with an alteration were assayed for their binding activities to each activating FcγR and inhibitory FcγR according to the method described in Example 4. […] The activating FcγRs in FIGS. 26, 27, 28, and 29 are FcγRIa, FcγRIIa (R), FcγRIIa (H), and FcγRIIIa, respectively.
as §1

| He/Con_2b | Binder |
| --- | --- |
| 86.1 % of control | B7 |
| 98.9 % of control | B8 |
| 73.6 % of control | B9 |
| 96.7 % of control | B10 |
| 89.8 % of control | B11 |
| 89.2 % of control | B12 |
| 99.2 % of control | B13 |
| 89.9 % of control | B14 |
| 77.4 % of control | B15 |
| 99.4 % of control | B16 |
| 89.6 % of control | B17 |
| 67.5 % of control | B18 |
| 85.8 % of control | B19 |
| 89.1 % of control | B20 |
| 97.6 % of control | B21 |
| 74.5 % of control | B22 |

| He/Con_2b | Binder |
| --- | --- |
| 58.2 % of control | B23 |
| 99.9 % of control | B24 |
| 94 % of control | B25 |
| 94.3 % of control | B26 |
| 92.2 % of control | B27 |
| 87.5 % of control | B28 |
| 78.3 % of control | B29 |
| 84.3 % of control | B30 |
| 98.4 % of control | B31 |
| 80.7 % of control | B32 |
| 90.3 % of control | B33 |
| 83.5 % of control | B34 |
| 84.3 % of control | B35 |
| 93 % of control | B36 |
| 91.5 % of control | B37 |
| 88.2 % of control | B38 |

Target: T3, FcγRIIa H
Test: as above
Description: as §2, §1

| He/Con_2aH | Binder |
| --- | --- |
| 100 % of control | B7 |
| 104 % of control | B8 |
| 108 % of control | B9 |
| 103 % of control | B10 |
| 102 % of control | B11 |
| 101 % of control | B12 |
| 100 % of control | B13 |
| 110 % of control | B14 |
| 103 % of control | B15 |
| 103 % of control | B16 |
| 111 % of control | B17 |
| 103 % of control | B18 |
| 106 % of control | B19 |
| 101 % of control | B20 |
| 103 % of control | B21 |
| 108 % of control | B22 |

| He/Con_2aH | Binder |
| --- | --- |
| 147 % of control | B23 |
| 108 % of control | B24 |
| 101 % of control | B25 |
| 108 % of control | B26 |
| 104 % of control | B27 |
| 103 % of control | B28 |
| 102 % of control | B29 |
| 105 % of control | B30 |
| 110 % of control | B31 |
| 105 % of control | B32 |
| 102 % of control | B33 |
| 102 % of control | B34 |
| 102 % of control | B35 |
| 109 % of control | B36 |
| 104 % of control | B37 |
| 102 % of control | B38 |
